The subject of this data set is Escherichia coli TOP10. Nature of the data set: shrunken log2 fold change of peptide-encoding DNA abundance (4.5 h post-induction vs induction); higher = less antimicrobial activity (less host growth inhibition). The note with it: time post-induction: 4.5 h; library: site-saturation at positions 5, 18, 19, 20.

Consider 125 sequences from the supplement of paper PMC9112550, “Optimization of the antimicrobial peptide Bac7 by deep mutational scanning” (BMC Biology, 2022).
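Note: peptides expressed intracellularly from a pBAD plasmid library in pooled LB shake-flask culture, induced with 0.3% L-arabinose, DNA abundance read by NGS, three biological replicates, DESeq2 with apeglm shrinkage.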

Take RRIRGRPPRLPRPRPRPDDYPRP: the “shrunken log2 fold change” value worked out at 0.662.
RRIRFRPPRLPRPRPRPILEPRP: the “shrunken log2 fold change” value is -0.133.
RRIRGRPPRLPRPRPRPDTKPRP: the “shrunken log2 fold change” value was 0.239.
As for RRIRARPPRLPRPRPRPWLAPRP, the figure is 0.162; as for RRIRIRPPRLPRPRPRPCDWPRP, 0.00175; as for RRIRQRPPRLPRPRPRPNLFPRP, -0.0199.
The figure for RRIRGRPPRLPRPRPRPQNYPRP is -0.153; for RRIRKRPPRLPRPRPRPGETPRP it is 0.476; for RRIRIRPPRLPRPRPRPDIYPRP it is -0.357.
As for RRIRIRPPRLPRPRPRPEISPRP, the figure is -0.481; as for RRIRWRPPRLPRPRPRPYPQPRP, -0.361.
For RRIRERPPRLPRPRPRPEWMPRP, the “shrunken log2 fold change” value turned out to be 0.171.
The figure for RRIRMRPPRLPRPRPRPNECPRP is 0.175; for RRIRPRPPRLPRPRPRPEPPPRP it is 0.474.
Take RRIRCRPPRLPRPRPRPGLCPRP: the “shrunken log2 fold change” value is 0.291.
The figure for RRIRARPPRLPRPRPRPEREPRP is 1.05; for RRIRERPPRLPRPRPRPWHEPRP it is -0.0932; for RRIRKRPPRLPRPRPRPLAPPRP it is 0.65.
The figure for RRIRFRPPRLPRPRPRPLVAPRP is -0.00793; for RRIRFRPPRLPRPRPRPWFLPRP it is -1.15; for RRIRNRPPRLPRPRPRPRECPRP it is 0.0263.
The figure for RRIRPRPPRLPRPRPRPPVGPRP is 0.557; for RRIRCRPPRLPRPRPRPFYPPRP it is -0.511.
On to RRIRIRPPRLPRPRPRPFFIPRP, for which the “shrunken log2 fold change” value was -0.641.
As for RRIRDRPPRLPRPRPRPNERPRP, the figure is 0.141; as for RRIRRRPPRLPRPRPRPMHEPRP, 0.213.
The figure for RRIRKRPPRLPRPRPRPCTQPRP is -0.0701.
In the case of RRIRCRPPRLPRPRPRPACSPRP, the “shrunken log2 fold change” value was -0.0823.
As for RRIRWRPPRLPRPRPRPNGIPRP, the figure is 0.0301; as for RRIRCRPPRLPRPRPRPEMKPRP, 0.0473; as for RRIRDRPPRLPRPRPRPWRLPRP, -0.264.
The figure for RRIRNRPPRLPRPRPRPCFDPRP is -0.0482.
The figure for RRIRSRPPRLPRPRPRPLCEPRP is 0.0616.
Regarding RRIRYRPPRLPRPRPRPVWWPRP, the “shrunken log2 fold change” value came to 0.113.
In the case of RRIRMRPPRLPRPRPRPYIIPRP, the “shrunken log2 fold change” value was -0.151.
As for RRIRHRPPRLPRPRPRPWIEPRP, the figure is 0.0254; as for RRIRFRPPRLPRPRPRPGMAPRP, -0.058.
As for RRIRMRPPRLPRPRPRPVSRPRP, the figure is 0.796.
The figure for RRIRFRPPRLPRPRPRPIMDPRP is -0.212; for RRIRFRPPRLPRPRPRPHKWPRP it is -0.073.
As to RRIRYRPPRLPRPRPRPEMAPRP, the “shrunken log2 fold change” value is -0.107.
The figure for RRIRERPPRLPRPRPRPVTPPRP is 0.0669; for RRIRGRPPRLPRPRPRPKGPPRP it is 0.331.
The figure for RRIRTRPPRLPRPRPRPECPPRP is 0.151; for RRIRDRPPRLPRPRPRPDKRPRP it is 0.00902; for RRIRNRPPRLPRPRPRPQCAPRP it is -0.0727.
The figure for RRIRCRPPRLPRPRPRPKAAPRP is 0.115; for RRIRVRPPRLPRPRPRPCKEPRP it is -0.335.
As to RRIRCRPPRLPRPRPRPVTMPRP, the “shrunken log2 fold change” value is -0.49.
The figure for RRIRNRPPRLPRPRPRPEDFPRP is 0.0401.
As for RRIRRRPPRLPRPRPRPMRQPRP, the figure is 0.202.
In the case of RRIRWRPPRLPRPRPRPRLDPRP, the “shrunken log2 fold change” value is 0.459.
For the sequence RRIRIRPPRLPRPRPRPMPEPRP, the “shrunken log2 fold change” value is -0.11.
The figure for RRIRQRPPRLPRPRPRPVEEPRP is -0.0284; for RRIRMRPPRLPRPRPRPTGVPRP it is 0.224; for RRIRPRPPRLPRPRPRPGGFPRP it is 0.318.
The figure for RRIRQRPPRLPRPRPRPSGCPRP is 0.0869; for RRIRSRPPRLPRPRPRPVKAPRP it is 0.0824; for RRIRERPPRLPRPRPRPCLTPRP it is -0.0208.
As for RRIRTRPPRLPRPRPRPLRHPRP, the figure is 0.252; as for RRIRSRPPRLPRPRPRPENHPRP, -0.138.
As for RRIRYRPPRLPRPRPRPLIWPRP, the “shrunken log2 fold change” value was -0.256.
The figure for RRIRYRPPRLPRPRPRPGMDPRP is -0.299; for RRIRKRPPRLPRPRPRPVTFPRP it is -0.126.
For the sequence RRIRYRPPRLPRPRPRPKEFPRP, the “shrunken log2 fold change” value was -0.00973.
The figure for RRIRRRPPRLPRPRPRPLVGPRP is 0.239; for RRIRCRPPRLPRPRPRPFKWPRP it is -0.115; for RRIRARPPRLPRPRPRPYPLPRP it is -0.127.
The figure for RRIRIRPPRLPRPRPRPWMHPRP is 0.0105; for RRIRTRPPRLPRPRPRPIGPPRP it is 0.0411; for RRIRNRPPRLPRPRPRPCVSPRP it is 0.0348.
As for RRIRCRPPRLPRPRPRPRCPPRP, the figure is 0.418; as for RRIRKRPPRLPRPRPRPTDAPRP, 0.05.
RRIRMRPPRLPRPRPRPPVTPRP: the “shrunken log2 fold change” value worked out at 0.673.
As to RRIRERPPRLPRPRPRPFACPRP, the “shrunken log2 fold change” value was -0.433.
The figure for RRIRFRPPRLPRPRPRPDIDPRP is 0.0707.
The figure for RRIRSRPPRLPRPRPRPVIYPRP is -0.226.
The figure for RRIRDRPPRLPRPRPRPLVGPRP is 0.337; for RRIRMRPPRLPRPRPRPTNIPRP it is -0.0556.
With RRIRPRPPRLPRPRPRPSYWPRP, the “shrunken log2 fold change” value was -0.277.
As for RRIRGRPPRLPRPRPRPSRIPRP, the figure is -0.234.
As for RRIRTRPPRLPRPRPRPSRIPRP, the figure is -0.179; as for RRIRGRPPRLPRPRPRPPFGPRP, 0.738; as for RRIRVRPPRLPRPRPRPPRMPRP, 0.167.
As for RRIRKRPPRLPRPRPRPCSYPRP, the “shrunken log2 fold change” value is -0.0348.
As for RRIRMRPPRLPRPRPRPQTKPRP, the figure is 0.205; as for RRIRPRPPRLPRPRPRPEYCPRP, -0.146; as for RRIRPRPPRLPRPRPRPIDYPRP, -0.13.
Take RRIRRRPPRLPRPRPRPWLEPRP: the “shrunken log2 fold change” value turned out to be 0.0128.
RRIRERPPRLPRPRPRPVETPRP: the “shrunken log2 fold change” value was -0.02.
With RRIRQRPPRLPRPRPRPLANPRP, the “shrunken log2 fold change” value was -0.00739.
On to RRIRMRPPRLPRPRPRPPEWPRP, for which the “shrunken log2 fold change” value is 0.5.
For the sequence RRIRSRPPRLPRPRPRPPLWPRP, the “shrunken log2 fold change” value worked out at 0.704.
For RRIRRRPPRLPRPRPRPPAEPRP, the “shrunken log2 fold change” value worked out at 0.851.
With RRIRQRPPRLPRPRPRPHPRPRP, the “shrunken log2 fold change” value was 0.575.
The figure for RRIRRRPPRLPRPRPRPCHGPRP is -0.589.
The figure for RRIRWRPPRLPRPRPRPQGAPRP is 0.988; for RRIRHRPPRLPRPRPRPTYAPRP it is -0.127; for RRIRVRPPRLPRPRPRPFHLPRP it is 0.0337.
As for RRIRLRPPRLPRPRPRPRWGPRP, the figure is 0.175; as for RRIRGRPPRLPRPRPRPMYMPRP, -0.169; as for RRIRYRPPRLPRPRPRPTTEPRP, 0.00298.
RRIRNRPPRLPRPRPRPEWDPRP: the “shrunken log2 fold change” value was -0.00515.
As for RRIRLRPPRLPRPRPRPTLAPRP, the figure is 0.423; as for RRIRARPPRLPRPRPRPYYMPRP, -0.687.
The figure for RRIRPRPPRLPRPRPRPQIWPRP is 0.0101.
With RRIRPRPPRLPRPRPRPSYIPRP, the “shrunken log2 fold change” value was -0.458.
For RRIRGRPPRLPRPRPRPFNAPRP, the “shrunken log2 fold change” value is -0.132.
As for RRIRQRPPRLPRPRPRPVYDPRP, the figure is -0.228.
The figure for RRIRKRPPRLPRPRPRPWHKPRP is -0.145; for RRIRARPPRLPRPRPRPEMMPRP it is 1.12.
As for RRIRPRPPRLPRPRPRPHFIPRP, the figure is -0.468; as for RRIRRRPPRLPRPRPRPMPGPRP, 0.243.
Turning to RRIRDRPPRLPRPRPRPQGHPRP, the “shrunken log2 fold change” value was -0.0748.
As for RRIRNRPPRLPRPRPRPIPQPRP, the figure is -0.35.
As for RRIRQRPPRLPRPRPRPIIMPRP, the figure is -0.25; as for RRIRSRPPRLPRPRPRPTFIPRP, -0.173; as for RRIRIRPPRLPRPRPRPKGYPRP, -0.0143.
Consider RRIRGRPPRLPRPRPRPDYLPRP, for which the “shrunken log2 fold change” value was found to be 0.115.
In the case of RRIRFRPPRLPRPRPRPQLLPRP, the “shrunken log2 fold change” value turned out to be 0.0217.
As for RRIRWRPPRLPRPRPRPRAWPRP, the figure is 0.124; as for RRIRPRPPRLPRPRPRPRTEPRP, 0.306; as for RRIRLRPPRLPRPRPRPDWSPRP, -0.124.
As for RRIRSRPPRLPRPRPRPAKVPRP, the figure is -0.0898.
The figure for RRIRTRPPRLPRPRPRPFCWPRP is -0.0403.
